By Kd is commonly meant the equilibrium constant for the complex coming apart.

Square brackets hold non-standard residues; d marks the D form. Ends that are not written are not given here. Cf = 5(6)-carboxyfluorescein label; Ac6c = NC1(C(=O)O)CCCCC1

We go through 6 molecules from PMC8864165, “Functional Effects of ARV-1502 Analogs Against Bacterial Hsp70 and Implications for Antimicrobial Activity” (Frontiers in Chemistry, 2022).

Assay [1] addresses T1, E. coli DnaK/DnaJ/GrpE-chaperone system (Escherichia coli, UniProt P0A6Y8 1-638; P08622 1-376; P09372 1-197).
T1 construct: also called full chaperone system (E. coli); source: E. coli (DE3) Rosetta pLysS, each purified; mixed (ratio 0.6:1.0:0.9) and pre-incubated for 30 min at room temperature
Kind of assay: fluorescence polarisation; as the direct titration, but with the full chaperone system: DnaK, DnaJ and GrpE (ratio 0.6:1.0:0.9) pre-incubated for 30 min at room temperature. As to conditions: both partners purified. A general note: In fluorescence polarisation assays a small probe gives low polarisation when free and higher when bound to something large.

The target of assay [2] is T2, S. aureus DnaK/DnaJ/GrpE-chaperone system (Staphylococcus aureus, UniProt P99110 1-610; P63971 1-379; P99086 1-208).
T2 construct: also called full chaperone system (S. aureus); source: E. coli (DE3) Rosetta pLysS, each purified; mixed (ratio 0.6:1.0:0.9) and pre-incubated for 30 min at room temperature
Described as above. Particulars: both partners purified.

Assay [3] concerns the target T3, S. aureus DnaK (Staphylococcus aureus, UniProt P99110 1-610).
T3 construct: source: E. coli (DE3) Rosetta pLysS, purified (IMAC, TEV cleavage, second IMAC)
Kind of assay: fluorescence polarisation; direct titration: protein serially diluted twofold in 23 steps, Cf-labeled peptide added (20 µL of 40 nmol/L to 20 µL); FP-buffer 20 mmol/L Tris-HCl, 150 mmol/L KCl, 5 mmol/L MgCl2, 1 mmol/L NaN3, 2 mmol/L DTT, pH 7.5; 2 h, 28°C, dark. Particulars: both partners purified.

The target in assay [4] is T4, E. coli DnaK (Escherichia coli, UniProt P0A6Y8 1-638).
T4 construct: source: E. coli (DE3) Rosetta pLysS, purified (IMAC, TEV cleavage, second IMAC)
Kind of assay: fluorescence polarisation; competition screen at one concentration: unlabeled peptide 5 µmol/L with 5 µmol/L E. coli DnaK, or 35 µmol/L with 16 µmol/L S. aureus DnaK, 90 min 28°C, then Cf-ARV-1502 (10 µL of 80 nmol/L), 90 min 28°C; duplicates; FP normalized to ARV-1502. Particulars: both partners purified.

Assay [5] deals with T3, S. aureus DnaK. Described as above. Particulars: both partners purified.
Assay [6] addresses T4, E. coli DnaK. Put plainly: fluorescence polarisation; direct titration: protein serially diluted twofold in 23 steps, Cf-labeled peptide added (20 µL of 40 nmol/L to 20 µL); FP-buffer 20 mmol/L Tris-HCl, 150 mmol/L KCl, 5 mmol/L MgCl2, 1 mmol/L NaN3, 2 mmol/L DTT, pH 7.5; 2 h, 28°C, dark. Particulars: both partners purified.
In assay [7] the target is T5, E. coli DnaJ (Escherichia coli, UniProt P08622 1-376).
T5 construct: source: E. coli (DE3) Rosetta pLysS, purified (IMAC, TEV cleavage, second IMAC)
T5 sequence: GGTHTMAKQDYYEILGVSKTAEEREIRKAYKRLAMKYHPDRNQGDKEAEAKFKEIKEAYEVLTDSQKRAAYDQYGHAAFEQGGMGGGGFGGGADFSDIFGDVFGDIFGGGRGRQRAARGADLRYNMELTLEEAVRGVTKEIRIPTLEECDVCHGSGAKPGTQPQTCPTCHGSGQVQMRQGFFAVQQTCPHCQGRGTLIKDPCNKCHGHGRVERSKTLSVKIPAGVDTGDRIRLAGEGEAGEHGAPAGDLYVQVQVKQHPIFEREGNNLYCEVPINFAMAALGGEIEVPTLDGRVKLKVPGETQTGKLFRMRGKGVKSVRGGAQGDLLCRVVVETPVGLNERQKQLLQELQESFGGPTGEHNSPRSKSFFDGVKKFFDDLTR
The assay is described as above. Particulars: both partners purified.

The target of assay [8] is T6, E. coli GrpE (Escherichia coli, UniProt P09372 1-197).
T6 construct: also called co-chaperone GrpE; nucleotide exchange factor GrpE; source: E. coli (DE3) Rosetta pLysS, purified (IMAC, TEV cleavage, second IMAC)
T6 sequence: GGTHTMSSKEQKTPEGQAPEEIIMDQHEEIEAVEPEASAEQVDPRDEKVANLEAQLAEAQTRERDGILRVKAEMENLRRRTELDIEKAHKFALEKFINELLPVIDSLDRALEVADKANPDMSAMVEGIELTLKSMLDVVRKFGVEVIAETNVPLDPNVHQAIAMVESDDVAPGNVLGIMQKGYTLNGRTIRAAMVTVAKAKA
The assay is described as above. As to conditions: both partners purified.

Assay [9] concerns the target T7, S. aureus GrpE (Staphylococcus aureus, UniProt P99086 1-208).
T7 construct: source: E. coli (DE3) Rosetta pLysS, purified (IMAC, TEV cleavage, second IMAC)
T7 sequence: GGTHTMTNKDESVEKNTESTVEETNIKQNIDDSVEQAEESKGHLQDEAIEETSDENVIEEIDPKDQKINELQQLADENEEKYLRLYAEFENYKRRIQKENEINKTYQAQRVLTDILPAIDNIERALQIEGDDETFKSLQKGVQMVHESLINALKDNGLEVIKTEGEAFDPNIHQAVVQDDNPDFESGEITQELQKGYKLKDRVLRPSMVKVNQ
Described as above. As to conditions: both partners purified.

Assay [10] concerns the target T4, E. coli DnaK. Kind of assay: cell-based or functional assay.

B1: Cf-peptide 102 (peptide)
peptide: Cf-RPFFPRPYLPLPRPPRPVR
notes: source: synthetic peptide, in-house (Fmoc/tBu chemistry on Rink amide resin), RP-HPLC purified
B1: the Kd worked out at 0.6 µM in assay [1], 1.6 µM in assay [2] and 1.6 µM in assay [3].

B2: peptide 103 (peptide)
peptide: [Ac6c]RPFFPRPYLPFPRPPRPVR-NH2
notes: source: synthetic peptide, bought: ABclonal, Inc
In the case of B2, the binding result in assay [4] and in [5] was “binds” throughout.

B3: peptide 45 (peptide)
peptide: [Ac6c]RPKKPRPYLPRLRPPRPVR-NH2
modifications: N-terminus assumed
SMILES: CC(C)C[C@H](NC(=O)[C@H](CCCNC(=N)N)NC(=O)[C@@H]1CCCN1C(=O)[C@H](CC(C)C)NC(=O)[C@H](Cc1ccc(O)cc1)NC(=O)[C@@H]1CCCN1C(=O)[C@H](CCCNC(=N)N)NC(=O)[C@@H]1CCCN1C(=O)[C@H](CCCCN)NC(=O)[C@H](CCCCN)NC(=O)[C@@H]1CCCN1C(=O)[C@H](CCCNC(=N)N)NC(=O)C1(N)CCCCC1)C(=O)N[C@@H](CCCNC(=N)N)C(=O)N1CCC[C@H]1C(=O)N1CCC[C@H]1C(=O)N[C@@H](CCCNC(=N)N)C(=O)N1CCC[C@H]1C(=O)N[C@H](C(=O)N[C@@H](CCCNC(=N)N)C(N)=O)C(C)C
notes: as for B2
Take B3: the binding result in assay [4] and in assay [5] was “binds” throughout.

B4: Cf-ARV-1502 (peptide)
peptide: Cf-RPDKPRPYLPRPRPPRPVR
notes: also called 5(6)-carboxyfluorescein-labeled ARV-1502; source: synthetic peptide, in-house (Fmoc/tBu chemistry on Rink amide resin), RP-HPLC purified
Turning to B4, the Kd was 3.1 µM in assay [1]; 30.2 µM in assay [2]; 0.2 µM in assay [6]; 25.1 µM in assay [3]; approximately 33.4 µM in assay [7]; approximately 213 µM in assay [8]. This molecule registered a Kd in assay [9] of approximately 138 µM.

B5: peptide 105 (peptide)
peptide: [Ac6c]RPFFPRPYLPRKRPPRPVR-NH2
notes: as for B2
Take B5: the binding result in [4] and in assay [5] was “binds” each time.

B6: ARV-1502 (peptide)
peptide: [Ac6c]RPDKPRPYLPRPRPPRPVR-NH2
modifications: N-terminus assumed
SMILES: CC(C)C[C@H](NC(=O)[C@H](Cc1ccc(O)cc1)NC(=O)[C@@H]1CCCN1C(=O)[C@H](CCCNC(=N)N)NC(=O)[C@@H]1CCCN1C(=O)[C@H](CCCCN)NC(=O)[C@H](CC(=O)O)NC(=O)[C@@H]1CCCN1C(=O)[C@H](CCCNC(=N)N)NC(=O)C1(N)CCCCC1)C(=O)N1CCC[C@H]1C(=O)N[C@@H](CCCNC(=N)N)C(=O)N1CCC[C@H]1C(=O)N[C@@H](CCCNC(=N)N)C(=O)N1CCC[C@H]1C(=O)N1CCC[C@H]1C(=O)N[C@@H](CCCNC(=N)N)C(=O)N1CCC[C@H]1C(=O)N[C@H](C(=O)N[C@@H](CCCNC(=N)N)C(N)=O)C(C)C
As to B6, the “refolding activity of the E. coli DnaK/DnaJ/GrpE-chaperone system (denatured luciferase refolding assay) at ARV-1502 concentrations ≥50 µmol/L, relative to no peptide” value in assay [10] is approximately 60%.
